One substance from patent CN102127167A can be followed below.

Where “and” joins values, the source holds several entries; their conditions need not be identical. Identical values can stand only once.

In general, Kd refers to the constant that tells how readily two partners part at equilibrium. Lower therefore signals higher affinity.

The target in assay [1] is 人TNFα (human) (UniProt P01375). Description: cell-based or functional assay.
The target in assay [2] is 人TNFα (human) (UniProt P01375). Description: SPR (Biacore), TNFa coupled to the chip, antibody as analyte.

Sequence of UniProt P01375 (P01375 77-233 limits assumed): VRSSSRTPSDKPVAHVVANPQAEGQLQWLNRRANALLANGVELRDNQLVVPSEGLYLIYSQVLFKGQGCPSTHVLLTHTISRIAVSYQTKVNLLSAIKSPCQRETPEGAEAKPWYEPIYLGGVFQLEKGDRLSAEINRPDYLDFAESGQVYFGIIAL

humira (antibody): in the assay with 人TNFα (human) [1], the IC50(pM), L929细胞保护试验 is 1.37 pM and 2.52 pM and 2.32 pM; the IC50(pM), L929细胞保护试验, 平均值 came to 2.42 pM. In the assay with 人TNFα (human) [2], this substance returned a Kd of 2.01 nM.
